According to patent publication US20240035010, “COMPOSITIONS COMPRISING A VARIANT POLYPEPTIDE AND USES THEREOF” (Arbor Biotechnologies, Inc., published 2024):

Experiments:
[1] = target: T1, variant nuclease L38G combination (P14R, D32R, I61R, E311R, L38G); assay: cell_activity; PAM 5'-TTTA-3'; details: tags: pcDNA3.1 expression
T1 chain: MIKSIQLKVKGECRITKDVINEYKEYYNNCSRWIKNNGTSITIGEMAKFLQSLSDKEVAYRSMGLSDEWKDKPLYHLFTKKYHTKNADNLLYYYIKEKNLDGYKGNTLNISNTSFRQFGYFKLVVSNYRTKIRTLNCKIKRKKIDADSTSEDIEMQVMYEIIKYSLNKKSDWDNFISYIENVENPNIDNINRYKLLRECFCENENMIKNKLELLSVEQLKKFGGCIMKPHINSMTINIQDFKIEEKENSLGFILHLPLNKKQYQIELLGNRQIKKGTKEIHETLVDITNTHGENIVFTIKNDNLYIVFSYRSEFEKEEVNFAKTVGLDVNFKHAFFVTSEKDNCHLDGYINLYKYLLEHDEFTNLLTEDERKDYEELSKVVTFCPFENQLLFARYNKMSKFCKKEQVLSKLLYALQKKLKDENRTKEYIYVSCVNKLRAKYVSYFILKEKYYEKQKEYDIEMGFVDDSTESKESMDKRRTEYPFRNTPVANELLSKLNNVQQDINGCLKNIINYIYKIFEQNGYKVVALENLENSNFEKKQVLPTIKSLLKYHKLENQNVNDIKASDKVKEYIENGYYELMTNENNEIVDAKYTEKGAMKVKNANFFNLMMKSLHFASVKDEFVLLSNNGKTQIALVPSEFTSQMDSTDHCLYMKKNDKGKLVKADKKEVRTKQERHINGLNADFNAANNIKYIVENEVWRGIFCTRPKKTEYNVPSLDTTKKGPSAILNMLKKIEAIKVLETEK
In short: (§1)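 HEK293T cells were lipofected with nuclease plasmid (pcDNA3.1 backbone) plus RNA guide plasmid, with guide omitted in negative controls. After ~72 h cells were lysed in QuickExtract and % indels were derived from NGS reads, averaged over two bioreplicates and two technical replicates.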

[2] = target: T2, variant nuclease E736G combination (P14R, D32R, I61R, E311R, E736G); assay: cell_activity; PAM 5'-TTTA-3'; details: tags: pcDNA3.1 expression
T2 chain: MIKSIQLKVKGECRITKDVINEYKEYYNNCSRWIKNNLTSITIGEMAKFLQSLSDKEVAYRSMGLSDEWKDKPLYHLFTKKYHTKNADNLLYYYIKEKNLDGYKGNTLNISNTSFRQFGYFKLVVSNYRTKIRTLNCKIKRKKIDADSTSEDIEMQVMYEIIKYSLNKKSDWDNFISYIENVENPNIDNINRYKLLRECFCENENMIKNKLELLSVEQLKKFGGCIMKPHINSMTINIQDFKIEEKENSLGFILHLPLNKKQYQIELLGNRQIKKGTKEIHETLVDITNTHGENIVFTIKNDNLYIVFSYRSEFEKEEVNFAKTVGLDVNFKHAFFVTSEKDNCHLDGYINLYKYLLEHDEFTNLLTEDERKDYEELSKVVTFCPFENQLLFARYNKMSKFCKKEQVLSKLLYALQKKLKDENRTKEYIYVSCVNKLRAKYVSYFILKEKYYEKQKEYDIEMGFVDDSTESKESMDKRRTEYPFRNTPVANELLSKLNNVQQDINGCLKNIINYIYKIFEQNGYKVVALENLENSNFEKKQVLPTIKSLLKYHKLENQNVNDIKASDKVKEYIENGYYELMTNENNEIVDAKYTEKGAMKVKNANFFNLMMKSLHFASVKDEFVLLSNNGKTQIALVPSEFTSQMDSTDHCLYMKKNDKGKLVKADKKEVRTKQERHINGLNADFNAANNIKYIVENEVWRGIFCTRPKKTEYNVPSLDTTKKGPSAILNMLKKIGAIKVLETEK
In short: as §1

B1: VEGFA crRNA ; VEGFA target (ssRNA ; dsDNA)
RNA: CUUGUUGUAUAUGUCCUUUUAUAGGUAUUAAACAACUCCAGACCACCAAUGGGCAC
DNA 1: TCCAGACCACCAATGGGCAC
DNA 2: GTGCCCATTGGTGGTCTGGA
Q: What does the source list for B1?
A: indel activity [1]: 0.22 fold of WT; indel activity [2]: 2.65 fold of WT
